In patent publication US20110280881A1 (RIKEN, published 2011):

What was measured:
[1] = molecular target: T1, mouse HSP90α (NP-034610) (mouse, UniProt P07901 2-733); test: antibody bound to living DC2.4 cells, lysis, Protein G-Sepharose, blot
T1 construct: whole, on cells; also called cell surface HSP90α
Protocol: (§1) Mammalian HSP90 occurs in two isoforms: HSP90α and β. The following experiment was performed to determine whether not only HSP90α but also HSP90β is recognized by the antibody of the present invention. […] After being thoroughly washed to remove the unreacted antibody, the cells were lysed; the lysate was centrifuged at 10,000×g, and the resulting supernatant was incubated along with Protein G-Sepharose. The bound material was subjected to SDS-PAGE, after which blotting was performed using an anti-HSP90α antibody (SPS-771, Assay designs), an anti-HSP90β antibody (PB-118-P1, Neomarkers), or an antibody that recognizes both HSP90α and β (6B1C4, another antibody obtained in Example 1).

[2] = molecular target: T2, mouse HSP90β (NP-032328) (mouse, UniProt P11499 2-724); test: as above
T2 construct: whole, on cells; also called cell surface HSP90β
T2 sequence (P11499 2-724): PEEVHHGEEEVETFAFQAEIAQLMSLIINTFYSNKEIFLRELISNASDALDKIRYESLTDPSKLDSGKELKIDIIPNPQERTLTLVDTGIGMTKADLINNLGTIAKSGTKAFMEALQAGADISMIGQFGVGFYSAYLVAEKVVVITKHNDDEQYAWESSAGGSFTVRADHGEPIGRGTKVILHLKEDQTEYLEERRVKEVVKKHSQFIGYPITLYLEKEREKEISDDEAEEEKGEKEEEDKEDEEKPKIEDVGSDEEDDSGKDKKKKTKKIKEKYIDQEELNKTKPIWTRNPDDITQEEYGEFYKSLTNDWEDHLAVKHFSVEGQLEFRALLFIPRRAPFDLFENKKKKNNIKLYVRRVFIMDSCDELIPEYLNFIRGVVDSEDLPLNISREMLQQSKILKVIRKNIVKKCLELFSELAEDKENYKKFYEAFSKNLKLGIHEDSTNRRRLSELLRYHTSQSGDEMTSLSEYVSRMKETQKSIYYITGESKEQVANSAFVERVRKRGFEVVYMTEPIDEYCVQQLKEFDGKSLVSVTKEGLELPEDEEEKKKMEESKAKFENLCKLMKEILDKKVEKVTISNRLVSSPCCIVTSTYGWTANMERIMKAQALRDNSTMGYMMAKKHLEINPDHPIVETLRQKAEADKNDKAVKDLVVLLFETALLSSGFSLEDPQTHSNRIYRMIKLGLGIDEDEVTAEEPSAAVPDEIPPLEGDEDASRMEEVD
Protocol: as §1

B1: 6H8D2 anti-HSP90 monoclonal antibody (hybridoma FERM BP-11222) (antibody, V domains shown)
VH: QVQLQQSGPELVKPGASVRISCKASGYTFTSYYIHWVKQRPGQGLEWIGWIYPGNVNTKYNEKFKGKATLTADKSSSTAYMQLSSLTSEDSAVYFCARYGNYPFAYWGQGTLVTVSA
VL: DVVMTQTPLSLPVSLGDQASISCRSSQSLVHSNGNTYLHWYLQKPGQSPKLLIYKVSNRFSGVPDRFSGSGSGTDFTLKISRVEAEDLGVYFCSQSTHVPPTFGGGTKLEIKR
notes: Mouse monoclonal IgG from a hybridoma; Normal mouse IgG2a served as its control; It was biotinylated for FACS; also called 6H8 antibody; 6H8 mAb
[1]
  binding result: binds
[2]
  binding result: binds
